Experimental data as given in the Human Domainome abundance scans (Beltran et al. 2025).

B1: Intersectin-2, residues 1129 to 1183; numbered along this chain, Q9NZM3 (parent)
chain: VCQVIAMYDYAANNEDELSFSKGQLINVMNKDDPDWWQGEINGVTGLFPSNYVKM

Variants of: B1
Test: abundance fitness (aPCA) (normalised: wild type 0, dead -1); higher = more abundant; growth selection in yeast, the domain comes from the species named
Conditions: Homo sapiens

Abundance fitness of substitutions, site by site:
Q24: E -0.007 | V -0.078 | C -0.151 | M -0.051 | L -0.199 | R -0.128 | G -0.073 | K -0.118 | H -0.154 | F -0.015 | Y -0.153 | W -0.038 | D 0.022 | S -0.073 | N -0.05
E17: F -0.11 | D -0.16 | T -0.158 | N -0.271 | C -0.105 | P -0.756 | A -0.174 | W -0.322 | V -0.145 | H 0.048 | Y 0.064 | I -0.215 | Q -0.042 | R -0.016 | M -0.037 | G -0.039 | L -0.124 | K -0.089
N13: T 0.011 | C -0.047 | P -0.133 | D -0.033 | G 0.031 | K 0.042 | Q 0.051 | V -0.003 | Y -0.141 | S 0.014 | F -0.092 | H 0.106 | M -0.014 | A -0.024 | R 0.038 | L 0.01 | E -0.017 | W -0.306 | I -0.071
S19: P -0.166 | G -0.052 | I -0.515 | H -0.123 | Y -0.197 | M -0.21 | W -0.313 | C -0.066 | N -0.047 | F -0.256 | L -0.615 | K -0.163 | D -0.168 | A -0.045 | Q -0.217 | E -0.193 | R -0.181
K22: R -0.121 | S -0.084 | L -0.146 | V -0.074 | G -0.097 | I -0.063 | P -0.154 | D -0.22 | C -0.061 | Y -0.172 | E -0.036 | T -0.064 | W -0.362 | F -0.164 | M -0.118 | A -0.027 | H -0.146 | Q 0.033 | N -0.025
L25: E 0.057 | H -0.054 | D 0.024 | I 0.006 | M 0.031 | K -0.064 | C -0.088 | G -0.035 | F -0.006
L18: Q -0.704 | V -0.092 | W -0.841 | P -0.895 | A -0.715 | H -0.512 | M -0.046 | C -0.378 | R -0.979 | N -0.783 | D -1.04 | Y -0.966 | T -0.778 | G -0.861 | I -0.001 | F -0.2 | S -0.854 | K -0.647
F20: D -1.03 | Y -0.497 | M -0.26 | C -0.596 | S -0.871 | L -0.079 | I -0.163 | P -0.919 | R -0.98 | H -0.988 | V -0.357 | T -0.88 | Q -0.844 | A -0.998 | K -0.921
G23: M -0.262 | N 0 | I -0.866 | Q -0.181 | S -0.07 | W -0.201 | Y -0.047 | C -0.247 | V -0.903 | R -0.195 | D -0.016 | A -0.161 | T -0.21 | K -0.103 | H 0.023 | E -0.098 | P -1.06
Y10: S -0.427 | F -0.084 | P -0.913 | R -0.063 | W -0.037 | N -0.249 | M -0.256 | G -0.761 | E -0.853 | D -0.777 | K -0.144 | T -0.865 | Q -0.505 | V -0.455 | I -0.494 | A -0.66 | H -0.124
D16: K 0.016 | M -0.066 | A 0.004
